Source: publication PMC6202052, “The ectodomains determine ligand function in vivo and selectivity of DLL1 and DLL4 toward NOTCH1 and NOTCH2 in vitro” (eLife, 2018)

T1: N2(1–15)-Fc (human, UniProt Q04721 26-605)
T1 construct: human NOTCH2, printed as N2(1–15); no catalogue number is printed; Captured on protein A sensor tips by its Fc; also called human N2; human NOTCH2; source: bought: R and D systems, used without further purification
T1 sequence (looked up): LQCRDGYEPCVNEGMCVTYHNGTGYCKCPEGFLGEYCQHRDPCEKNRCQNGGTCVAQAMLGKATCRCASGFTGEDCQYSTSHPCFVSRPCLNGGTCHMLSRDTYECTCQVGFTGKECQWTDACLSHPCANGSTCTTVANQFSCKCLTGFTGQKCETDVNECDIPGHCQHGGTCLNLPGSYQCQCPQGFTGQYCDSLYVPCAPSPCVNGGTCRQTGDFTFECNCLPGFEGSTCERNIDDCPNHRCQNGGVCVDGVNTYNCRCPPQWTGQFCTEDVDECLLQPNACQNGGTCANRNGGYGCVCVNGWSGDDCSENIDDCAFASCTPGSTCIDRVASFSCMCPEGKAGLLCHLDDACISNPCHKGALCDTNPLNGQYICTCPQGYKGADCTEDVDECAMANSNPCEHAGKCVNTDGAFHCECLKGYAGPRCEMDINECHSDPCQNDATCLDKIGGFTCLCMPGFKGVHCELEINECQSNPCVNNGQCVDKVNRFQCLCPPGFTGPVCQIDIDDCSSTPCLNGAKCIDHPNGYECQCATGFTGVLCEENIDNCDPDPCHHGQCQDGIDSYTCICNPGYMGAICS


How the values were obtained:
[1] = target: T2, biotinylated human N1 ectodomain fragment containing EGF repeats 6–15 (human, UniProt P46531 216-604, biotin on the Avi tag (BirA co-expression)); experiment: BLI; BLItz instrument; biotinylated Notch1 fragment loaded on streptavidin biosensors, dipped into ligand samples of varying concentration until equilibrium; HBS-P buffer with 0.005% surfactant P20 and 5 mM CaCl2; equilibrium curves fitted with a one site specific binding model; settings: both partners purified
T2 construct: human NOTCH1, EGF repeats 6–15 (amino acids 216–604); also called hN1; N1 fragment; source: Expi293F, transiently transfected (co-transfected with BirA and POFUT1), purified from the medium (Ni-NTA, Superdex 200); not shown: Avi (biotinylation) tag, C-terminal, kept

[2] = target: T1, N2(1–15)-Fc; experiment: BLI; BLItz instrument; N2(1–15)-Fc captured on protein A biosensors, ligand samples of varying concentration; HBS-P buffer with 0.005% surfactant P20 and 5 mM CaCl2; equilibrium curves fitted with a one site specific binding model; settings: both partners purified

Kd [1] [nM]	Kd [2] [nM]	Binder
430		mD4N-E5 (mouse DLL4 from the N-terminus up to and including EGF5) (domain or fragment, UniProt Q9JI71 27-401, looked up, mouse DLL4, N-terminus up to and including EGF5; also called DLL4 (from the N-terminus through EGF-repeat 5); pLexM-D4N-E5-Avi-His; source: Expi293F, transiently transfected, purified from the medium (Ni-NTA, Superdex 200)) GSGIFQLRLQEFVNQRGMLANGQSCEPGCRTFFRICLKHFQATFSEGPCTFGNVSTPVLGTNSFVVRDKNSGSGRNPLQLPFNFTWPGTFSLNIQAWHTPGDDLRPETSPGNSLISQIIIQGSLAVGKIWRTDEQNDTLTRLSYSYRVICSDNYYGESCSRLCKKRDDHFGHYECQPDGSLSCLPGWTGKYCDQPICLSGCHEQNGYCSKPDECICRPGWQGRLCNECIPHNGCRHGTCSIPWQCACDEGWGGLFCDQDLNYCTHHSPCKNGSTCSNSGPKGYTCTCLPGYTGEHCELGLSKCASNPCRNGGSCKDQENSYHCLCPPGYYGQHCEHSTLTCADSPCFNGGSCRERNQGSSYACECPPNFTGSNCE
1560		mDLL1 fragment (mouse DLL1 from the N-terminus up to and including EGF5) (domain or fragment, mouse DLL1, N-terminus up to and including EGF5; also called DLL1 (from the N-terminus through EGF-repeat 5); D1N-E5; source: Expi293F, transiently transfected, purified from the medium (Ni-NTA, Superdex 200)) not shown
	360	hD1N-E5 (human DLL1 from the N-terminus through EGF-repeat 5) (domain or fragment, UniProt O00548 18-402, looked up, human DLL1, N-terminus through EGF5; source: Expi293F, transiently transfected, purified from the medium (Ni-NTA, Superdex 200)) QVWSSGVFELKLQEFVNKKGLLGNRNCCRGGAGPPPCACRTFFRVCLKHYQASVSPEPPCTYGSAVTPVLGVDSFSLPDGGGADSAFSNPIRFPFGFTWPGTFSLIIEALHTDSPDDLATENPERLISRLATQRHLTVGEEWSQDLHSSGRTDLKYSYRFVCDEHYYGEGCSVFCRPRDDAFGHFTCGERGEKVCNPGWKGPYCTEPICLPGCDEQHGFCDKPGECKCRVGWQGRYCDECIRYPGCLHGTCQQPWQCNCQEGWGGLFCNQDLNYCTHHKPCKNGATCTNTGQGSYTCSCRPGYTGATCELGIDECDPSPCKNGGSCTDLENSYSCTCPPGFYGKICELSAMTCADGPCFNGGRCSDSPDGGYSCRCPVGYSGFNC
	1280	D4N-E5 (DLL4 from the N-terminus through EGF-repeat 5) as used in the N2 binding experiment (domain or fragment, UniProt Q9NR61 27-400, looked up, DLL4, N-terminus through EGF5; it may be the mouse fragment m2); The sentence names hD1N-E5 as human but prints D4N-E5 without a species prefix; source: Expi293F, transiently transfected, purified from the medium (Ni-NTA, Superdex 200)) SGVFQLQLQEFINERGVLASGRPCEPGCRTFFRVCLKHFQAVVSPGPCTFGTVSTPVLGTNSFAVRDDSSGGGRNPLQLPFNFTWPGTFSLIIEAWHAPGDDLRPEALPPDALISKIAIQGSLAVGQNWLLDEQTSTLTRLRYSYRVICSDNYYGDNCSRLCKKRNDHFGHYVCQPDGNLSCLPGWTGEYCQQPICLSGCHEQNGYCSKPAECLCRPGWQGRLCNECIPHNGCRHGTCSTPWQCTCDEGWGGLFCDQDLNYCTHHSPCKNGATCSNSGQRSYTCTCRPGYTGVDCELELSECDSNPCRNGGSCKDQEDGYHCLCPPGYYGLHCEHSTLSCADSPCFNGGSCRERNQGANYACECPPNFTGSNCE
